From paper doi:10.1101/2021.02.07.430159

Target: GST-MLLE protein (MLLE domain of PABPC1)
Experiment: SPR

**Q.** For SNLNPNAPEFHPGVPWKGLQ [super-PAM2 peptide], which Kd is on record?
**A.** 20 nM
